Literature values, collected in paper PMC5453503.
Several values for one entry are separate records, joined by “and”; a condition that tells them apart may be missing. Equal values may be shown once.

Target: VEGFR2 (Homo sapiens) (UniProt P35968)
Sequence of UniProt P35968 (P35968 20-1356): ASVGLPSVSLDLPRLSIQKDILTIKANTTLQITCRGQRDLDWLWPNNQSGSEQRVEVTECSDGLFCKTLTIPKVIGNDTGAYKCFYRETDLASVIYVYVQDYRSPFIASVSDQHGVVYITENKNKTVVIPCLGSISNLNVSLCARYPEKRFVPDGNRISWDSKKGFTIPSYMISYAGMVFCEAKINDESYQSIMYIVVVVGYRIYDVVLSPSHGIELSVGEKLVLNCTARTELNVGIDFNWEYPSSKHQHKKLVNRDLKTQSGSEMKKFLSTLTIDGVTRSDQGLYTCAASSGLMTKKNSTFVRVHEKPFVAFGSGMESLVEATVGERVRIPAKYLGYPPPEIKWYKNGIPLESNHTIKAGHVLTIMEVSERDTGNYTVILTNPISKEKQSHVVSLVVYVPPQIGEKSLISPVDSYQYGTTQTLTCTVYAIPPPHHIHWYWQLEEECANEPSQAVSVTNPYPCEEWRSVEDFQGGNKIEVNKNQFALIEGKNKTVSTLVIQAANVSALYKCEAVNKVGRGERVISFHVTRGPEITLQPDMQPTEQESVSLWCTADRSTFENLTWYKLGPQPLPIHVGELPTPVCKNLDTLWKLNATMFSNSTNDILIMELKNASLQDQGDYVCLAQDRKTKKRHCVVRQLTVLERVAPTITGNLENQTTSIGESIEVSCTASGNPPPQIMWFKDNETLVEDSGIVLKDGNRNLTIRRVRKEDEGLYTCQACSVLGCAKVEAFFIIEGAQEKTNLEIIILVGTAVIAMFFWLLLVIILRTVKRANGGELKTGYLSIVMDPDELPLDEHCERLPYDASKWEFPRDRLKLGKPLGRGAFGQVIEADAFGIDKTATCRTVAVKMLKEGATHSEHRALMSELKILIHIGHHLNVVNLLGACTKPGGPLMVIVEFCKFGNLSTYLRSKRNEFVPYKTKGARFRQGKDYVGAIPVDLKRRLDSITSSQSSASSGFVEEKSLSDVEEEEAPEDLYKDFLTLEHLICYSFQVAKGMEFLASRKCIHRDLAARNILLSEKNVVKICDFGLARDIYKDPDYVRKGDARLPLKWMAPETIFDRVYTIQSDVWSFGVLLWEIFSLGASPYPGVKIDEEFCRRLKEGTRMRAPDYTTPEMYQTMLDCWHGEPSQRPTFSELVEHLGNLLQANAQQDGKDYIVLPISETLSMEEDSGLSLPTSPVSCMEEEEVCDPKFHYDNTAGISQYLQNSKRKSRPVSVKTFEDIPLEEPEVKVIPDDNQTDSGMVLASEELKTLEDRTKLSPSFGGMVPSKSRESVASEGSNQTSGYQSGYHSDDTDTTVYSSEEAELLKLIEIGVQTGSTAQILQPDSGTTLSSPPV

## VEGF165a (from UniProt P15692)
  Kd: 0.41 nM and 0.76 nM
